Target: T1, PAR-1 N-terminal tail peptide (TR33-62) (artificial)
T1 sequence (peptide): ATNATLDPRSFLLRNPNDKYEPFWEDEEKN

B1: KKK191-193AAA-APC (enzyme)
chain: ANSFLEELRHSSLERECIEEICDFEEAKEIFQNVDDTLAFWSKHVDGDQCLVLPLEHPCASLCCGHGTCIDGIGSFSCDCRSGWEGRFCQREVSFLNCSLDNGGCTHYCLEEVGWRRCSCAPGYKLGDDLLQCHPAVKFPCGRPWKRMEKKRSHLKRDTEDQEDQVDPRLIDGKMTRRGDSPWQVVLLDSAAALACGAVLIHPSWVLTAAHCMDESKKLLVRLGEYDLRRWEKWELDLDIKEVFVHPNYSKSTTDNDIALLHLAQPATLSQTIVPICLPDSGLAERELNQAGQETLVTGWGYHSSREKEAKRNRTFVLNFIKIPVVPHNECSEVMSNMVSENMLCAGILGDRQDACEGDSGGPMVASFHGTWFLVGLVSWGEGCGLLHNYGVYTKVSRYLDWIHGHIRDKEAPQKSWAP
- PAR-1 peptide (TR33-62) cleavage (% rwt-APC), catalytic efficiency by HPLC: 88 % rwt-APC
